Data: patent publication US8283521B2, “Transcription factor gene induced by water deficit conditions and abscisic acid from Helianthus annuus, promoter and transgenic plants” (Bioceres S.A., priority 2003, dated 2012)

Test system: gus gene
Assay: Histochemical analysis of β-glucuronidase activity in transformed plants
Assay type: in vivo, Arabidopsis thaliana
Details: for induction of the promoter construct by ABA: gus reporter, ABA treatment; for expression of gus gene in different development stages and organs: several independent lines, all studied organs; for expression of gus gene in cotyledons: 2-day germination seedlings
Description: When the construct including the complete segment of the small allele was employed, the expression of the gus gene in the cotyledons of 2-day germination seedlings was also viewed. However, and differing from the region 0 to −400, the expression of gus gene was very intense in the leaves and roots of the young seedlings (FIG. 20).
The inventive plants from A. thaliana that resulted resistant to kanamycin in the selection and PCR reaction of were subjected to histochemical β-glucuronidase activity test. The tested embryos and organs were washed with buffer 50 mM Na2HPO4 pH 7. They were then transferred to a solution 50 mM Na2HPO4 pH 7.0, 1% Triton X-100, 2 mM X-gluc (5-bromine-4-chlorine-3-indolil β-D-glucuronide), subjected to vacuum for 5 minutes and incubated at 37° C. in darkness between 2 and 12 hours. After incubation they were fixed in 10% formaldehide solution, 50% ethanol and 5% ascetic acid for 10 minutes at room temperature. Formaldehide was removed, ethanol 70% was added and conserved at 4° C.
The histochemical analysis was made in 2, 10 and 20 day-old seedlings grown in Petri dishes containing MS medium and 0.8% agar and adult plants grown in flowerpots containing soil.

B1: region 0 to −200: promoter fragment, nucleotides 1011 to 1221 of SEQ ID NO 3, in pBI101.3 (nucleic acid, listed as Helianthus annuus)
DNA: ATCTCAACCGAAAGTGACATCATGACAGAGAATCGACATAACCAAAACGTGTAAACGTACAACTCACCATTGCGTTGAAAAGGACAAAACAGGTAGGATTCTTGTCAAATTCAACGCGTACACCTGTGCTTCATCTAAACCCCATACTTTAAGAACCTTTATAAAGACCACTCACTATATATACACATATATAATATCACTTATCAAACCC
modifications: in pBI101.3; promoter (1)..(1221) Large allele
  induction of the promoter construct by ABA: not induced by ABA
  expression of gus gene in different development stages and organs: not expressed

B2: region 0 to −300: promoter fragment, nucleotides 904 to 1221 of SEQ ID NO 3, in pBI101.3 (nucleic acid, listed as Helianthus annuus)
DNA: AACCTAAGTCCGCCTTTGTCTGGATCACGTGAAACATCAGGTCTCTCCCTTACCAGTCCAGCTACGACTCATTGACAAAATATCAAAACCATATGATTTTGAGTTTTATCTCAACCGAAAGTGACATCATGACAGAGAATCGACATAACCAAAACGTGTAAACGTACAACTCACCATTGCGTTGAAAAGGACAAAACAGGTAGGATTCTTGTCAAATTCAACGCGTACACCTGTGCTTCATCTAAACCCCATACTTTAAGAACCTTTATAAAGACCACTCACTATATATACACATATATAATATCACTTATCAAACCC
modifications: in pBI101.3; promoter (1)..(1221) Large allele
  induction of the promoter construct by ABA: not induced by ABA
  expression of gus gene in different development stages and organs: not expressed

B3: construct including the complete segment of the small allele: promoting region from 0 to −1015 (small allele, SEQ ID NO 10) cloned in pBI101.3 driving gus (nucleic acid, listed as Helianthus annuus)
DNA: GATCCAATTGGACCACCTGGCACATCGTATCTTATCTCTTTTGTCGTTTCCAACACACCACAACACACCTACAAACGTGTCAATTCACACTTCACCAATTTCATTTCCTTTTAGTCAATCATATTAAAAGTAGTAGCCCCCACCCCCATTTGTTACCTACCATTTCCCACTTTAATAATCACCCACGCTATGTCCACTTGTACTTTTGTTTGCACACAACTCTTCCCATAAAATATCAAACCAAATTTTTTTTAATGGAAAACAAATACTTCAAATGCACTATTGGTGAAATTCACCACATCAGAATACACCCGTCTCTACTCATCTACTGGCCAACGAATCTTCACGGGGGAAACCCTCACTCGTCTACTGGGACTACTGGCGCTTCAAAATGGACTACTGACAAAATTCACCACATCGGGATACACTTGTCTACTGCGGTGAGGTAAAATCCGCCGCTCAGCTCAATGATCGAACTAGCGATCGCCACCCACTCACCTTGTCTCCCATCATCACCAGGTGCCGCCAAAACAAAATGTTGGGGGCGGGAATTGAACCTAGGTCCAGTGGCGCACCCATGAATTTTTTTTCTAGGGATGCGAACGAGTGATTTAACCATACTTTTAAGAGGTGCGATCGGAAATTTTACCTATAAAATATACTAAAAAAATTTCAAGGGTCCGCCCACCCACCCCTTAACCTAAGTCCGCCTCTGCCTGGATCACGTGAAACATCAGGTCTCTCTCTTACCAGTTCACCTACAACTCATTGACAAAATATCAAAACCATATGATTTTGAGTTTTATCTCAACCGAAAGTGACATCATGACAGAGAATCGACATAACCAAAACGTGTAAACGTACAACTCACCATTGCGTTGAAAAGGACAAAACAGGTAGGATTCTTGTCAAATTCAACGCGTACACCTGTGCTTCATCTAAACCCCATACTTTAAGAACCTTTATAAAGACCACTCACTATATATACACATATATAATATCACTTATCAAACCC
modifications: cloned in pBI101.3 driving gus
  expression of gus gene in cotyledons: also viewed
Reproductive stage
  expression of gus gene during the reproductive stage: not detected any expression
Young seedlings
  expression of gus gene in leaves and roots: very intense

B4: construct 0 to −400: Hahb-4 promoter fragment, nucleotides 805 to 1221 of SEQ ID NO 3, cloned into pBI101.3 driving gus (nucleic acid, listed as Helianthus annuus)
DNA: GGATGCGAACGAGTGGTTTAACCATACTTTTAAGAGGTGCGATCGGAAATTTTACCTATAAAATACACTAAAAAAGTTCCAAGGGTCCACCCACCCCTTAACCTAAGTCCGCCTTTGTCTGGATCACGTGAAACATCAGGTCTCTCCCTTACCAGTCCAGCTACGACTCATTGACAAAATATCAAAACCATATGATTTTGAGTTTTATCTCAACCGAAAGTGACATCATGACAGAGAATCGACATAACCAAAACGTGTAAACGTACAACTCACCATTGCGTTGAAAAGGACAAAACAGGTAGGATTCTTGTCAAATTCAACGCGTACACCTGTGCTTCATCTAAACCCCATACTTTAAGAACCTTTATAAAGACCACTCACTATATATACACATATATAATATCACTTATCAAACCC
modifications: cloned in pBI101.3 driving gus; promoter (1)..(1221) Large allele
  expression of gus gene in cotyledons: enough to drive the expression of gene gus
  induction of the promoter construct by ABA: capable of being induced by ABA
10 germination days
  expression of gus gene in young seedlings: not detectable
